{"source": "patent US8282967B2", "about": "“Nitric oxide-releasing particles for nitric oxide therapeutics and biomedical applications” (The University of North Carolina at Chapel Hill, priority 2005, dated 2012)", "key": {"[1]": {"system": "A2780 ovarian epithelial tumor cells", "experiment": "MTT cell viability assay, A2780 cells", "type": "cell-based, human", "conditions": "small molecule NO donor; cell line not named in the sentence (b369 names OVCAR-3 for PYRRO/NO)", "procedure": "To evaluate the tumoricidal potential of NO donor silica nanoparticles, the cytotoxicity of control and NO-releasing silica particles on immortalized normal (T29) and cancer (A2780 and OVCAR-3) human ovarian epithelial cells was tested. MTT cell viability assays were performed as described below. The 3-(4,5-dimethylthiazol-2-yl-)-2,5-diphenyltetrazoliumbromide (MTT) proliferation assay was employed to determine the relative sensitivities of OVCAR-3 cells to PYRRO/NO. Cells were seeded in 6 replicates at 1−5×10^3 cells/well in 96-well microtiter plates, incubated overnight, and exposed to concentrations of NO donor and control pyrrolidine solutions for 48 h. The NO-releasing medium was then removed and replaced by MTT solution, upon which the cells were incubated for an additional 4 h at 37° C. Following removal of the MTT, DMSO was added, and the absorption of the solution was measured at 560 nm using a microplate reader.\nTo investigate whether nanoparticle size affects cytotoxicity, two silica nanoparticles (75 mol % MAP3, balance TEOS) of different particle size (80 and 350 nm in diameter, hereafter referred to as s-MAP3 and L-MAP3, respectively) were synthesized. […] Cell viability was determined by incubating T29 and A2780 with non NO-releasing control MAP3 particle (80 nm), s-MAP3, or L-MAP3 (0.4 mg/mL) for 48 h. […]"}, "[2]": {"experiment": "Nitric oxide release from diazeniumdiolated materials", "type": "physicochemical", "procedure": "Nitric oxide release of the presently disclosed NO-releasing particles was measured according to the following general procedure. Referring now to FIG. 12, a predetermined volume of phosphate buffer solution (PBS) (pH 7.4, 37° C.) was disposed in a receptacle, e.g., a round-bottomed flask. The receptacle was sealed, leaving an inlet for nitrogen gas and an outlet for a mixture of nitrogen and nitric oxide. The outlet was in fluid communication with a chemiluminescence nitric oxide analyzer. An aliquot of a solution containing a diazeniumdiolated species was injected into the PBS buffer. The chemiluminescence nitric oxide analyzer measured the amount of NO that reacted with ozone (O3) to form excited NO2*, which emitted electromagnetic radiation (hv) as shown in Scheme 2. […] NO2*→NO2+hv Scheme 2. Measurement of NO by chemiluminescence.\nNO release from a variety of NO-releasing materials was measured according to the procedure outlined in Example 3. The diazeniumdiolated fumed silica particles were prepared as described in Example 9, below, grafting the fumed silica surface to N-(6-aminohexyl)-3-aminopropyltrimethoxysilane, followed by diazeniumdiolation of the secondary amine with NO gas."}}, "data": [{"compound": "[Na+].[O-]N=[N+]([O-])N1CCCC1", "note": "[PYRRO/NO]", "values": [{"measurement": "Cytotoxic NO concentration", "setting": "[1]", "result": 4.4, "unit": "mM NO"}]}, {"compound": "Proteins (Bovine serum albumin (BSA): diazeniumdiolated bovine serum albumin", "values": [{"measurement": "NO Released", "setting": "[2]", "result": 0.54, "unit": "mmol NO/g"}, {"measurement": "tv2", "setting": "[2]", "result": "7.2E4. min"}]}]}
